Changes are numbered by the printed parent chain. Blank lines part the entries; values can stand above or below the molecule they belong to.
Tests used:
[1] = target: T1, biotinylated cynomolgus 5T4 with His-Avi tag (produced in-house) (cynomolgus monkey, UniProt Q4R8Y9 35-355, biotin on the Avi tag); experiment: Octet, biotinylated antigen on streptavidin biosensors, antibody at 500 nM (bivalent)
T1 construct: also called cyno 5T4; Cyno 5T4 Octet (bivalent); not shown: C-terminal 6-His-Avi tag
T1 sequence: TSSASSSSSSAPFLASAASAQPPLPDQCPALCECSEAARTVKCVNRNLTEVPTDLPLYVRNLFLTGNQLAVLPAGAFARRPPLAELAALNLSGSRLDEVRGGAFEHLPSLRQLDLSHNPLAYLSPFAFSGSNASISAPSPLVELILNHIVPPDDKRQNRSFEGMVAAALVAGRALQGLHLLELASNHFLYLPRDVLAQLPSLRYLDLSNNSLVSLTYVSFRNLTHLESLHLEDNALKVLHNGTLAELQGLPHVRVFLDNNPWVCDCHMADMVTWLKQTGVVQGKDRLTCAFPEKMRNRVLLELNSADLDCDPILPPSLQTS

[2] = target: T2, biotinylated mouse 5T4 with His-Avi tag (produced in-house) (mouse, UniProt Q9Z0L0 32-361, biotin on the Avi tag); experiment: as above
T2 construct: also called Mouse 5T4 Octet (bivalent); not shown: C-terminal 6-His-Avi tag
T2 sequence: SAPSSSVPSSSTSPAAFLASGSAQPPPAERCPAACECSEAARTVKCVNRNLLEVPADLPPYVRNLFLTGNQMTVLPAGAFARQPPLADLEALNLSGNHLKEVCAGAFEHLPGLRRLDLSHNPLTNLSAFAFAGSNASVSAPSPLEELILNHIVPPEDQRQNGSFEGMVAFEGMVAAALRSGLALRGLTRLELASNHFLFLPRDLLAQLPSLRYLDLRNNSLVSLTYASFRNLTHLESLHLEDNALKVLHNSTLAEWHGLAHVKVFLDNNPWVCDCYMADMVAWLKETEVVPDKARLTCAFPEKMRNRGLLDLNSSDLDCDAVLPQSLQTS

[3] = target: T3, cynomolgus 5T4 on cells (HEK-cyno-5T4, transfected HEK293 and CHO cells) (cynomolgus monkey, UniProt Q4R8Y9 35-420); experiment: flow cytometry on HEK-cyno-5T4 cells
T3 construct: also called HEK-cyno-5T4 cells
T3 sequence: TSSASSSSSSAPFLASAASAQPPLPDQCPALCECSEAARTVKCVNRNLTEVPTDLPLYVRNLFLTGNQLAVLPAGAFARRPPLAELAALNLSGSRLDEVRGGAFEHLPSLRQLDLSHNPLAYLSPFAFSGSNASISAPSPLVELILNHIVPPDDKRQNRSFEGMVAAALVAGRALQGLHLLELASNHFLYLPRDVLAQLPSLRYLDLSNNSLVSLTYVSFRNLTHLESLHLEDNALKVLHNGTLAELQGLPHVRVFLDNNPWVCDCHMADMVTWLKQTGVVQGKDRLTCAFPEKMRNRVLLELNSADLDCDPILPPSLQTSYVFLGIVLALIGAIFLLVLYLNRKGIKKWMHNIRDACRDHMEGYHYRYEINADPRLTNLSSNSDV

mouse 5T4 = target: T4, mouse 5T4 (Mus musculus, UniProt Q9Z0L0); experiment: Octet bivalent binding assay, mouse 5T4; design: key: +: An increase in signal during the association step above the negative control was considered as binding to the antigen; conditions: 200 nM biotinylated antigen immobilized, antibody at 500 nM
T4 construct: made in house
T4 sequence (Q9Z0L0 32-361 limits assumed): T2 sequence
Description: (§1) Bivalent binding assays were employed to provide data on whether antibodies with VH/VL obtained by the phage display in Example 1 bound immobilized 5T4 from all three clinically relevant species: human, cynomolgus monkey (cyno), and mouse. For the bivalent binding and cross-reactivity assays the 5T4 human, cyno, and mouse antigens were synthesized using sequences from the protein database and expressed as biotinylated proteins using a his-avi tag and in vivo biotinylation with co-expressed BirA enzyme.
(§2) A standard Octet-based assay was used to determine qualitatively if each antibody bound to each antigen. For these assays, 200 nM biotinylated antigens were immobilized on streptavidin biosensors in 1× kinetic buffer (ForteBio). The loaded sensors were then dipped in wells containing an antibody of interest at 500 nM and the association binding signal was monitored. An increase in signal during the association step above the negative control was considered as binding to the antigen.

cyno 5T4 = target: T5, cyno 5T4 (Macaca fascicularis, UniProt Q4R8Y9); experiment: Octet bivalent binding assay, cyno 5T4; design: species or system cynomolgus monkey; key: +: An increase in signal during the association step above the negative control was considered as binding to the antigen; conditions: 200 nM biotinylated antigen immobilized, antibody at 500 nM
T5 construct: made in house
T5 sequence (Q4R8Y9 35-355 limits assumed): T1 sequence
Description: as §1, §2

human 5T4 = target: T6, human 5T4 (Homo sapiens, UniProt Q13641); experiment: Octet bivalent binding assay, human 5T4; design: The extracellular domain of human 5T4 was purchased from Acro Biosystems (biotinylated human 5T4 His-AVITAG™ Acro Cat No. TPG-H83Eb) or produced; made in house; key: +: An increase in signal during the association step above the negative control was considered as binding to the antigen; conditions: 200 nM biotinylated antigen immobilized, antibody at 500 nM
T6 sequence (Q13641 32-355 limits assumed): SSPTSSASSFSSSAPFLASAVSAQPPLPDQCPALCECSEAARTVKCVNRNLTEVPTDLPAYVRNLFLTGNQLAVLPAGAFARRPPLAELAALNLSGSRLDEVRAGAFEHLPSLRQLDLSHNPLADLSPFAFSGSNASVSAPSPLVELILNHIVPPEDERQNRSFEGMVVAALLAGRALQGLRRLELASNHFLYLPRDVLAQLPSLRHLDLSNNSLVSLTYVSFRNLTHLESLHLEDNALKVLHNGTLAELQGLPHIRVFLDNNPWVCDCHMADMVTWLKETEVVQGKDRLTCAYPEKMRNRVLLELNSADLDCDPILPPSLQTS
Description: as §1, §2

HEK-5T4 cells = experiment: Internalization assay (Incucyte FabFluor-pH), HEK-5T4 cells; type: cell-based
Protocol: Adherent cells were harvested at 70-90% confluence and were plated overnight at 37° C. in a 96-well black, clear/flat bottom half-area plate (Corning 3882) at 20,000 cells/well in 50 μL culture media. For suspension cell lines, 96-well plates were coated with poly-L-ornithine solution (Millipore-Sigma) for 1 hour at 37° C. and cells were seeded at 40,000 cells per/well density in 50 μL culture media, about 1 to 2 hours prior to the assay. Antibodies were diluted in cell culture media, mixed with 3× molar concentration of Incucyte human FabFluor-pH red antibody labelling reagent and incubated for 15 minutes at room temperature. 2× final concentration of all dilutions of antibody/FabFluor mix was prepared. 50 μL of 2× antibody/Fab-Fluor mix was then directly added to every well with pre-seeded cells in duplicates and plate was quickly transferred to Incucyte. Plates were then scanned every 30 minutes for up to 24 hours. Care was taken to begin the first scanning (0 hour) within 2 to 3 minutes of adding antibody/FabFluor mix to the cells. Plates were analyzed by reading the red signal generated overtime, normalized to the % confluence of cells in that well. Few antibodies were tested at different concentrations on target cell lines, and the best concentration was selected based on a good signal:noise ratio.

- binding result [1]: binds
- binding result [2]: binds
B1: mAbA17 (antibody, V domains shown)
VH: EVQLVESGGGLVQPGGSLRLSCAASGFTFSRYWIHWVRQAPGKGLEWVAAIFPYSGSTLYADSVKGRFTISADTSKNTAYLQMNSLRAEDTAVYYCARSPSRSILPSGLDYWGQGTLVTVSS
VL: DIQMTQSPSSLSASVGDRVTITCRASQSVSSAVAWYQQKPGKAPKLLIYSASSLYSGVPSRFSGSRSGTDFTLTISSLQPEDFATYYCQQGDGSPYTFGQGTKVEIKR
notes: also called Antibody mAbA17

- binding result [1]: binds
- binding result [2]: binds
- binding result [3]: binds
B2: mAbA15 (antibody, V domains shown)
VH: EVQLVESGGGLVQPGGSLRLSCAASGFTFSSYYIHWVRQAPGKGLEWVAYITSTGSYTEYADSVKGRFTISADTSKNTAYLQMNSLRAEDTAVYYCARYDRSTRYSGLDYWGQGTLVTVSS
VL: B1 VL with G91A, D92Y, G93A, S94T, Y96V
notes: also called Antibody mAbA15

- binding result [3]: binds
B3: mAbA4 (antibody, V domains shown)
VH: EVQLVESGGGLVQPGGSLRLSCAASGFTFSRYYIHWVRQAPGKGLEWVAFISPGGSYTYYADSVKGRFTISADTSKNTAYLQMNSLRAEDTAVYYCAREYYSMGVLDYWGQGTLVTVSS
VL: B1 VL with G91A, D92Y, G93E
notes: also called Antibody mAbA4

B4: mAbA17: 5T4 antibody comprising VH of SEQ ID NO:62 and VL of SEQ ID NO:63 (antibody, V domains shown)
VH: B1 VH
VL: DIQMTQSPSSLSASVGDRVTITCRASQSVSSAVAWYQQKPGKAPKLLIYSASSLYSGVPSRFSGSRSGTDFTLTISSLQPEDFATYYCQQGDGSPYTFGQGTKVEIK
modifications: Antibody mAbA17 VH Sequence; Antibody mAbA17 VL Sequence
- Mouse 5T4 Octet (bivalent) (mouse 5T4): +
- Cyno 5T4 Octet (bivalent) (cyno 5T4): +
- Human 5T4 Octet (bivalent) (human 5T4): +

B5: mAbA4: 5T4 antibody comprising VH of SEQ ID NO:25 and VL of SEQ ID NO:26 (antibody, V domains shown)
VH: B3 VH
VL: B4 VL with G91A, D92Y, G93E
modifications: Antibody mAbA4 VH Sequence; Antibody mAbA4 VL Sequence
- internalization in HEK-5T4 cells (HEK-5T4 cells): strong internalization

B6: mAbA15: 5T4 antibody comprising VH of SEQ ID NO:44 and VL of SEQ ID NO:45 (antibody, V domains shown)
VH: B2 VH
VL: B4 VL with G91A, D92Y, G93A, S94T, Y96V
modifications: Antibody mAbA15 VH Sequence; Antibody mAbA15 VL Sequence
- internalization in HEK-5T4 cells (HEK-5T4 cells): strong internalization
- Mouse 5T4 Octet (bivalent) (mouse 5T4): +
- Cyno 5T4 Octet (bivalent) (cyno 5T4): +
- Human 5T4 Octet (bivalent) (human 5T4): +

From US20250295803A1, “5T4 ANTIBODY-DRUG CONJUGATES AND USES THEREOF” (EXELIXIS, INC., priority 2022, published 2025)
